Reference: the supplement of paper PMC9170038

System: MS2 coat protein
Test: apparent KD of MS2 coat protein; designed switch direction (-1 OFF switch, 1 ON switch): 1; higher = weaker reporter binding
Summary of the method: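 Transcription of designed RNA switches on Illumina chips was done by stalled E. coli RNA polymerase. SNAP-549-labelled MS2 coat protein was then titrated in doubling steps from 0.7 or 1.5 nM to 3 µM, with steps of 0.8–1.5 h at the lowest and 10–20 min at the highest concentration. The per-design median over clusters of curve-fitted normalised fluorescence is reported as apparent KD.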

[1] = Eterna round: R95, input ligand: FMN 200 uM
[2] = Eterna round: R95, input ligand: microRNA oligo, concentration not stated
[3] = Eterna round: R95, input ligand: none
[4] = input ligand: microRNA oligo, concentration not stated

Row | Sequence | apparent KD of MS2 coat protein [1] | apparent KD of MS2 coat protein [2] | apparent KD of MS2 coat protein [3] | apparent KD of MS2 coat protein (input ligand: FMN 200 uM) | apparent KD of MS2 coat protein [4] | apparent KD of MS2 coat protein (input ligand: none)
1 | GUUUGACAUGAGGAUCACCCAUGUCAUACGGACACAGGAUAUCGUGGCCUGAAGCCGUCAUGAGAAGGGUGACCAA [Ceaza] (puzzle: Same State 1) | 33.8 nM | 14.3 nM | 12.5 nM |  |  | 
2 | UUAGUCAUGUAAGGAUAUGCAGCCGUUUCGGCUGCAGAAGGUACUAUAAUUACAUGAGGAUCACCCAUGUUAUAAAAUUUAUAU [JL SSNG1 1.24] (Eterna round: R96, puzzle: Same State NG 1) |  |  |  | 19.9 nM | 25 nM | 36.6 nM
3 | AUACCGUGCCAAGGAUAUGGUGUAAACACAUGAGGAUCACCCAUGUCAGAGAGUCGAGCGACUAGCUAGAAGGUGGUAUGGGAA [Eternabot solution 9] (Eterna round: R96, puzzle: Same State NG 2) |  |  |  | 112 nM | 149 nM | 393 nM
4 | CUAUCUACAGGUGUCAUUGCUCGUCUUAUACAUGAGGAUCACCCAUGUUAUAGCCCGGUGCUUGCGCUGGGCUGAUU [JL ViennaUCT Tearor mod 5] (puzzle: Sensor for hsa-mir-208a) | 114 nM | 15.5 nM | 99.9 nM |  |  | 
5 | GUACUCAUGUAAGGAUAUGCAGCCGUUUCGGCUGCAGAAGGUACUAUAAUACAUGAGGAUCACCCAUGUCUCUAUAAUUUGGUG [salish99_SSNG1_r04_902] (Eterna round: R96, puzzle: Same State NG 1) |  |  |  | 177 nM | 62.4 nM | 132 nM
6 | UGCUAGUGGGUAGGAUAUUUAGGAUAUGGGAAAGACUAAGUCUGUAGGUCACCUAACCCAGAAGGAGAGAAGGACCAUUCAGCU [pwkr ssNG2 2FMN + F9.27] (Eterna round: R96, puzzle: Same State NG 2) |  |  |  | 30.3 nM | 4.33 nM | 28.5 nM
7 | GGUAAACAUGAGGAUCACCCAUGUAAUAAUAUGGGAGGAUAUGGGAAUUAAUUAAUUAAACCAGAAGGCCUAAUGG [Mat - Same State 1 - D86] (puzzle: Same State 1) | 133 nM | 424 nM | 628 nM |  |  | 
8 | CUGAGGAAGAGAGAGGAUAUCCAAAGGAAAACAUGAGGAUCACCCAUGUAAAAGGUAGGAAAUUGGGAGAAGGCUCAAGAGAGAG [salish99-ss2-068] (Eterna round: R96, puzzle: Same State 2) |  |  |  | 32.3 nM | 38.3 nM | 39.3 nM
9 | GAGUGGUAAAGAGGAUAUGCAUUGUUAUUCACUGUAGAAGGUUUUAACAUGAGGAUCACCCAUGUAGGACUAUUCCUGUGUUUC [Parity 63 - Jieux - Same State NG 1] (Eterna round: R96, puzzle: Same State NG 1) |  |  |  | 14.4 nM | 11.8 nM | 17.3 nM
10 | GUUACAUGAGGAUCACCCAUGUAUGUGUGGGAGUAAGUGUCUUAGGAUAUCUAUCAUUUAAGUUAAGAGAAGGAAGAUUGUUGU [JMF's solution 95] (Eterna round: R96, puzzle: Same State NG 3) |  |  |  | 135 nM | 80.4 nM | 108 nM
11 | AUAAAACACAUGAGGAUCACCCAUGUGGCCGUAGUCGGCACACAGGAUAUCAAGCAACUAGAGCUUGAGAAGGGUGAGACAAAA [Raar] (Eterna round: R96, puzzle: Same State NG 3) |  |  |  | 179 nM | 4.09 nM | 250 nM
12 | GCGGAACGGUGUGACAUGAGGAUCACCCAUGUAACCUCAUGUAAGGAUAUCGGGAAGAAGAAAACCGAGAAGGUACGGUGACGC [AK SSNG3-V2-29] (Eterna round: R96, puzzle: Same State NG 3) |  |  |  | 399 nM | 152 nM | 706 nM
